Measured values published in article PMC4150770.

Tests used:
[1] = biological target: 43S·mRNA preinitiation complex assembled with eIF5-G62S (yeast) (UniProt P32911); assay: fluorescence polarisation; dissociation kinetics by fluorescence anisotropy, 43S·mRNA(UUG) complexes: 15 nM eIF1A-Fl, 1 μM eIF1, 1 μM eIF5 variant, 120 nM 40S, 10 μM mRNA(UUG), 300 nM eIF2, 150 nM Met-tRNAi, 1 mM GDPNP·Mg2+; chase with 15 μM unlabeled eIF1A; 30 mM HEPES pH 7.4, 100 mM potassium acetate, 3 mM Mg(OAc)2, 2 mM DTT; double exponential fit (k1 fast phase, open state; k2 slow phase, closed state)
[2] = biological target: 43S·mRNA preinitiation complex assembled with eIF5-G31R,M18V (yeast) (UniProt P32911); assay: as above
[3] = biological target: 43S·mRNA preinitiation complex assembled with eIF5-M18V (yeast) (UniProt P32911); assay: as above
[4] = biological target: 43S·mRNA preinitiation complex assembled with eIF5-G31R (yeast) (UniProt P32911); assay: as above
[5] = biological target: 43S·mRNA preinitiation complex assembled with WT eIF5 (40S subunits, eIF1, eIF5, eIF2·GDPNP·Met-tRNAi ternary complex, model mRNA) (yeast) (UniProt P32911); assay: as above
[6] = biological target: 43S·mRNA preinitiation complex assembled with eIF5-G31R,G62S (yeast) (UniProt P32911); assay: as above
[7] = biological target: 43S·mRNA preinitiation complex assembled with eIF5-G62S (yeast) (UniProt P32911); assay: fluorescence polarisation; dissociation kinetics by fluorescence anisotropy, 43S·mRNA(AUG) complexes: 15 nM eIF1A-Fl, 1 μM eIF1, 1 μM eIF5 variant, 120 nM 40S, 10 μM mRNA(AUG), 300 nM eIF2, 150 nM Met-tRNAi, 1 mM GDPNP·Mg2+; chase with 15 μM unlabeled eIF1A; 30 mM HEPES pH 7.4, 100 mM potassium acetate, 3 mM Mg(OAc)2, 2 mM DTT; double exponential fit (k1 fast phase, open state; k2 slow phase, closed state)
[8] = biological target: 43S·mRNA preinitiation complex assembled with eIF5-G31R,M18V (yeast) (UniProt P32911); assay: as above
[9] = biological target: 43S·mRNA preinitiation complex assembled with eIF5-M18V (yeast) (UniProt P32911); assay: as above
[10] = biological target: 43S·mRNA preinitiation complex assembled with eIF5-G31R (yeast) (UniProt P32911); assay: as above
[11] = biological target: 43S·mRNA preinitiation complex assembled with WT eIF5 (40S subunits, eIF1, eIF5, eIF2·GDPNP·Met-tRNAi ternary complex, model mRNA) (yeast) (UniProt P32911); assay: as above
[12] = biological target: 43S·mRNA preinitiation complex assembled with eIF5-G31R,G62S (yeast) (UniProt P32911); assay: as above

“eIF1A labeled at its C-terminus with fluorescein (from UniProt P38912 1-153) (natural protein)” was tested, and the k1 (dissociation rate constant, fast phase, open state) [1] was 0.025 s⁻¹, the k2 (dissociation rate constant, slow phase, closed state) [1] was 0.002 s⁻¹ and the k1 (dissociation rate constant, fast phase, open state) [2] was 0.018 s⁻¹. For the same substance, the k2 (dissociation rate constant, slow phase, closed state) [2] was 0.0003 s⁻¹, the k1 (dissociation rate constant, fast phase, open state) [3] was 0.011 s⁻¹ and the k2 (dissociation rate constant, slow phase, closed state) [3] was 0.0012 s⁻¹. The k1 (dissociation rate constant, fast phase, open state) [4] was 0.008 s⁻¹, the k2 (dissociation rate constant, slow phase, closed state) [4] was 0.0005 s⁻¹ and the k1 (dissociation rate constant, fast phase, open state) [5] was 0.011 s⁻¹. It also gave a k2 (dissociation rate constant, slow phase, closed state) [5] of 0.0011 s⁻¹, a k1 (dissociation rate constant, fast phase, open state) [6] of 0.026 s⁻¹ and a k2 (dissociation rate constant, slow phase, closed state) [6] of 0.004 s⁻¹. The k1 (dissociation rate constant, fast phase, open state) [7] was 0.018 s⁻¹, the k2 (dissociation rate constant, slow phase, closed state) [7] was 0.003 s⁻¹ and the k1 (dissociation rate constant, fast phase, open state) [8] was 0.025 s⁻¹. For the same substance, the k2 (dissociation rate constant, slow phase, closed state) [8] was 0.002 s⁻¹, the k1 (dissociation rate constant, fast phase, open state) [9] was 0.003 s⁻¹ and the k2 (dissociation rate constant, slow phase, closed state) [9] was 0.0003 s⁻¹. The k1 (dissociation rate constant, fast phase, open state) [10] was 0.016 s⁻¹, the k2 (dissociation rate constant, slow phase, closed state) [10] was 0.005 s⁻¹ and the k1 (dissociation rate constant, fast phase, open state) [11] was 0.007 s⁻¹. The k2 (dissociation rate constant, slow phase, closed state) [11] was 0.0004 s⁻¹, the k1 (dissociation rate constant, fast phase, open state) [12] was 0.018 s⁻¹ and the k2 (dissociation rate constant, slow phase, closed state) [12] was 0.003 s⁻¹.
